Test results reported in article PMC5372681, “Study of Different Variants of Mo Enzyme crARC and the Interaction with Its Partners crCytb5-R and crCytb5-1” (International Journal of Molecular Sciences, 2017).
Each block holds one substance with its values, some of them ahead of it.

Experiments:
[1] = target: crCytb5-1, Chlamydomonas reinhardtii cytochrome b5-1 (Chlamydomonas reinhardtii)
[2] = target: crCytb5-R, Chlamydomonas reinhardtii NADH cytochrome b5 reductase (Chlamydomonas reinhardtii)
[3] = target: crARC variant F210A (Chlamydomonas reinhardtii); test: SEC; each protein loaded alone; Superdex 200 10/300 GL, 50 mM phosphate buffer pH 7.2, 0.15 M NaCl, 0.75 mL/min; Mw from a calibration curve of marker proteins
[4] = target: crARC variant R276A (Chlamydomonas reinhardtii); test: as above
[5] = target: crCytb5-1, Chlamydomonas reinhardtii cytochrome b5-1 (Chlamydomonas reinhardtii); test: as above
[6] = target: crARC, Chlamydomonas reinhardtii mARC (mitochondrial Amidoxime Reducing Component), wild type (Chlamydomonas reinhardtii); test: SEC; two proteins incubated together for 10 min, then loaded; 15 pmol of each; Superdex 200 10/300 GL, 50 mM phosphate buffer pH 7.2, 0.15 M NaCl, 0.75 mL/min; peak fractions checked by SDS-PAGE
[7] = target: crCytb5-R, Chlamydomonas reinhardtii NADH cytochrome b5 reductase (Chlamydomonas reinhardtii); test: as above

Substance: crARC variant F210A (enzyme)
times more oligomeric forms than the wild type [3]: 10 times

Substance: crARC variant R276A (enzyme)
stoichiometry N [4]: 30 crARC units

Substance: crCytb5-1, Chlamydomonas reinhardtii cytochrome b5-1 (natural protein)
stoichiometry N [5]: 2 | stoichiometry N (crCytb5-1 per crARC) [6]: 2 | stoichiometry N (crCytb5-1 per crCytb5-R) [7]: 4

Second part, the substance after the results:

NADH-dependent HAP reduction activity of the crARC variant with crCytb5-1 and crCytb5-R (% of the wild type activity) [1]: 25
Substance: crARC variant E267A (enzyme)

NADH-dependent HAP reduction activity of the crARC variant with crCytb5-1 and crCytb5-R [2]: 25%
Substance: crARC variant E267A (enzyme; the values are: NADH-dependent HAP reduction activity (% of wild type))
